Results reported in the supplement of paper PMC9170038.

System: MS2 coat protein
Test: apparent KD of MS2 coat protein; designed switch direction (-1 OFF switch, 1 ON switch): 1; higher = weaker reporter binding
Method in brief: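 RNA switches sharing common flanks were transcribed by stalled E. coli RNA polymerase on Illumina chips. A doubling series of SNAP-549-labelled MS2 coat protein, from 0.7 or 1.5 nM to 3 µM, was applied in Tris-HCl pH 7.5 buffer with KCl, MgCl2, BSA, DTT, tRNA and Tween-20. Each step lasted 0.8–1.5 h at the bottom of the series and 10–20 min at the top. Normalised cluster fluorescence was curve-fitted, giving apparent KD as the per-design median over clusters.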

[1] = input ligand: microRNA oligo, concentration not stated
[2] = Eterna round: R95, input ligand: FMN 200 uM
[3] = Eterna round: R95, input ligand: microRNA oligo, concentration not stated
[4] = Eterna round: R95, input ligand: none

Sequence	apparent KD of MS2 coat protein (input ligand: FMN 200 uM) [nM]	apparent KD of MS2 coat protein [1] [nM]	apparent KD of MS2 coat protein (input ligand: none) [nM]	apparent KD of MS2 coat protein [2] [nM]	apparent KD of MS2 coat protein [3] [nM]	apparent KD of MS2 coat protein [4] [nM]
UUAAUAAUGUUAGGAUAUACAUGAGGAAUCCUCGUAGAAGGAACAUGACAUGAGGAUCACCCAUGUAGCGCUCCGUAGAGCGCA [Mat - Same State NG 1 - JL mod - D45] (Eterna round: R96, puzzle: Same State NG 1)	1600	53.2	164			
UUAAUUAAUUAAUUAUACAUGAGGAUCACCCAUGUAAGUGAUCAGGAUAUCAGCUCGAUUAGAGCUGAGAAGGGAUACAUGAAU [SSNG3/12-A2] (Eterna round: R96, puzzle: Same State NG 3)	94.4	88.3	139			
UUACUCAUGUAAGGAUAUGCAGCCGAAACGGCUGCAGAAGGUACUAUAAUACAUGAGGAUCACCCAUGUAAAAUAUAUAAAGUU [Mat - Same State NG 1 - JL mod - D96] (Eterna round: R96, puzzle: Same State NG 1)	33.9	33.6	28.2			
UUACUCAUGUAAGGAUAUGCAGCCGAAACGGCUGCAGAAGGUACUAUAAUACAUGAGGAUCACCCAUGUCAAAAUAAUUAAAAC [Mat - Same State NG 1 - JL mod - D72] (Eterna round: R96, puzzle: Same State NG 1)	34.8	26	26.9			
UUAUAACAUGAGGAUCACCCAUGUCAUCUAAGUCGAGGAUAUGGGCAAAUAUAAUAAGAACCAGAAGGCGAAUAUU [Mat - Same State 1 - Mod of UCT - D33] (puzzle: Same State 1)				141	14.2	49.9
UUCCCAUCGGGAGGAUAUGGUUCCUUAUUGGUUCUAGAAGGUCCAACAUGAGGAUCACCCAUGUGGGAGUGGUCUAAUGACCUC [SS NG10LRO05] (Eterna round: R96, puzzle: Same State NG 1)	889	256	702			
UUCCUACAUGAGGAUCACCCAUGUGACGCCUCGAUAGGAUAUGCGUGUGCCUUGGCGCAUGCAGAAGGAUUGUAGC [JL Aveso mod 8] (puzzle: Same State 1)				224	27.6	21.4
UUCUCAUUUACAUGAGGAUCACCCAUGUUUUUUUGUCAGAAAUAGGAUAUAGGUCUCUCGUUUUACUAGAAGGAUUUCUUUAUU [JR_SSNG3_Sub088] (Eterna round: R96, puzzle: Same State NG 3)	146	134	145			
UUGAAGAAUUAAGGAUAUCGAGUCAAGAUGUUAAACAUGAGGAUCACCCAUGUGGGUUGCGGUAUCGAGAAGGUAAAUAACAAG [Mat - Same State NG 2 - JL mod - D53] (Eterna round: R96, puzzle: Same State NG 2)	23.3	23.6	38.2			
UUGAAGAAUUAAGGAUAUUGAAUACAUAUGUUUAACAUGAGGAUCACCCAUGUGGGUUGCGGUAUCGAGAAGGUAAAUUAAUAG [Mat - Same State NG 2 - JL mod - D9] (Eterna round: R96, puzzle: Same State NG 2)	142	98.4	118			
UUGAAGAAUUAAGGAUAUUGAAUACAUAUGUUUAACAUGAGGAUCACCCAUGUGGGUUGCGGUGUCGAGAAGGUAAAAUAAUAG [Mat - same State NG 2 - JL mod - D95] (Eterna round: R96, puzzle: Same State NG 2)	194	124	329			
UUGAAGAAUUAAGGAUAUUGAGUACAUAUGUUUAACAUGAGGAUCACCCAUGUGGGUUGCGGUAUCGAGAAGGUAAAAUACUAG [Mat - same State NG 2 - JL mod - D73] (Eterna round: R96, puzzle: Same State NG 2)	156	126	87.9			
UUGAAGAAUUAAGGAUAUUGAUUACAUAUGUUAAACAUGAGGAUCACCCAUGUGGGUUGCGGUAUCGAGAAGGUAAAUUAAUAG [Mat - same State NG 2 - JL mod - D77] (Eterna round: R96, puzzle: Same State NG 2)		89.6				
UUGAAGAAUUAAGGAUAUUGAUUACAUAUGUUAAACAUGAGGAUCACCCAUGUGGGUUGCGGUAUCGAGAAGGUAAAUUACUAG [Mat - same State NG 2 - JL mod - D76] (Eterna round: R96, puzzle: Same State NG 2)	63.3	74.1	87.3			
UUGAGAUGUACAGGAUAUGGUGAGGAUCACCCACUAGAAGGGUGCACAUGUGAAUCGGACAUGAGGAUCACCCAUGUUGGGCGU (Eterna round: R96, puzzle: Same State NG 1)	108	224	209			
UUGAUUAACGUAGGAUAUCGACCUACAUGAGGAUCACCCAUGUCUUUGAAUAGAUUUUUUUGUUACGAGAAGGACGUUAUGUAU [JR_SSNG2_Sub066] (Eterna round: R96, puzzle: Same State NG 2)	40.7	49.6	89.4			
UUGCAGUCAGGUGAGGAUAUCAUGAAUUUAACAUGAGGAUCACCCAUGUGCUGCCUUGCAGCAUAUGAGAAGGCACCUGGCUGCU [JL-ss2-3.02 Brourd Mod] (puzzle: Same State 2)				106	923	859
UUGCCGCGGGUAGGAUAUGGUCACACUUCUAAAACAUGAGGAUCACCCAUGUCCGACACAUAAAGCCAGAAGGACCCGCGGCUC [Erisriin] (Eterna round: R96, puzzle: Same State NG 2)	18.2	47.4	77.3			
UUGCGCUGUCGAGAGGAUAUGCGGUGAUGGACAUGAGGAUCACCCAUGUUAGCGAUAGCAUUACGGUAGAAGGCUCUACAGCUGC [salish99_ss2_r3_094] (puzzle: Same State 2)				13	21.5	21.9
UUGCGGGAUUAAGGAUAUUGAGUACAUAUGUUUAACAUGAGGAUCACCCAUGUGGGUUGCGGUAUCGAGAAGGUAACUUACUAC [salish99_SSNG2_r04_804] (Eterna round: R96, puzzle: Same State NG 2)	92.9	79.3	96.3			
UUGCGGGCUUGAGGAUAUUGAGUACAUAUGUUUAACAUGAGGAUCACCCAUGUGGGUUGCGGUAUCGAGAAGGUAACUUCCUCC [salish99_SSNG2_r04_809] (Eterna round: R96, puzzle: Same State NG 2)	169	124	163			
UUGCUCGUGUGAGGAUAUGCAGCCGUUUCGGCUGCAGAAGGUACUAUAAUACAUGAGGAUCACCCAUGUCUCUAUUAUUUAGUG [salish99_SSNG1_r04_926] (Eterna round: R96, puzzle: Same State NG 1)	19.5	19.2	28.7			
UUGUUUCGUCAUUAACAUGAGGAUCACCCAUGUAUCGACUCAAAGGAUAUAUAUGCUUGUUUGCAAUAGAAGGUUGAUUGUUGU [JR_SSNG3_Sub092] (Eterna round: R96, puzzle: Same State NG 3)		28.1				
UUUAAACAUGAGGAUCACCCAUGUCAACAAAGUCGAGGAUAUGGGCAAAUAAAAUAAGAACCAGAAGGCGAAUAAU [salish99_ss1_r3_068] (puzzle: Same State 1)				49.2	585	334
UUUACUUUCAUAGGAUAUCAUGCGAAAAUUGCGUGAGAAGGGUGCACACUGUCUUUCUAGGAGUACAUGAGGAUCACCCAUGUG [SameState NG1 #66] (Eterna round: R96, puzzle: Same State NG 1)	52.4	48.3	50.9			
UUUAGCGUUACAGGAUAUGGUGAGGAUUACCCACUAGAAGGGUAAACAUGUGCGUCGUACAUGAGGAUCACCCAUGUAGGGCGU (Eterna round: R96, puzzle: Same State NG 1)	20.6	15.5	20.6			
UUUAGUUGCGCGCAGGAUAUGUAUUAAUAUACAUGAGGAUCACCCAUGUGAGACCAAAUAGGUCUGCAGAAGGGCGAAUCGCGAC [Laonerce - 28] (puzzle: Same State 2)				45.4	139	199
UUUAGUUGCGGGCAGGAUAUGUAUUAAAAUACAUGAGGAUCACCCAUGUGAGGUCAUAACGACCUACAGAAGGGCCAAUCGCGAC [Laonerce - 15] (puzzle: Same State 2)				17.2	64.4	86.1
UUUAGUUGCGGGCAGGAUAUGUAUUAAUAUACAUGAGGAUCACCCAUGUGAGAUCGAAUAGAUCUACAGAAGGGCCAAUCGCGAC [Laonerce - 25] (puzzle: Same State 2)				19.8	133	188
UUUAUAGGCGCAGGAUAUGGUGAGGAUCACCCACUAGAAGGGUGCACAUGAGAAUCGGACAUGAGGAUCACCCAUGUCCGGCGC (Eterna round: R96, puzzle: Same State NG 1)	915	201	526			
